The supplement of paper PMC9170038

tested on: K4 kissing-loop RNA reporter; assay: apparent KD of K4 kissing-loop reporter; higher = weaker reporter binding; details: Eterna round: R107; input ligand: none
Protocol: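 RNA-MaP round R107: designed RNA switches with theophylline, tryptophan, arginine or FMN aptamers are transcribed on-chip within common flanks. They are titrated with a labelled K4 kissing-loop RNA reporter in RNA-MaP buffer (100 mM Tris pH 7.5, 80 mM KCl, 4 mM MgCl2), without ligand or with the indicated ligand. Median apparent KD per design.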
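Note: bound reporter read as fluorescence of individual clusters on recovered sequencing chips by microscopy, with normalized cluster intensities fitted with a binding model.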

Row | Sequence | apparent KD of K4 kissing-loop reporter
1 | GAGCGGUGGAGGUUACCGCUAUUCUGAGAAGGAGCGCAGAAGACUGCAGGUAGGUCGCUUAGAGCUUGCAGUGAUGUUGCAAGUU [KL-SSArg-A13] | 141 nM
2 | CGCUGGGCGAGUGAUGUUCGCUCACGUGAUACCAGUGCCAUCCAACACCCUUGGCAGCACGCGGGCAGUGAUGUUGUCCUUGUGG [Exclusion Theophylline A GF7] | 285 nM
3 | GGAUCCACCAGUGAUGUUGGAGAAAACUCUAAGGAUAUGACGAAAGUCAGAAGGUGGUAGACUGGACAAAGUCCGGUCGGAUCCA [FmnA 23 U30] | 397 nM
4 | AGCUCACACGGAAGGAGCGGAUAGAACUGACAGUUGGGCUCAAGUGAUGUUUGGGCUUGAAUCCAGGUAGGUCGCCGUGUGAGCU [Arg B SS t12] | 109 nM
5 | CCGACUGCAGGAAGGAGCGGCGGUUGGAGUGAUGUUCCAGGUAGUGAUGUUACCAAGAUCCGCCAGGUAGGUCGCCUGUUGCUCA [Same State Arginie B GF 12] | 115 nM
6 | UUUUAUUAAUUCUUCUAGUGAUGUUAGAUACGAGGACCGGUACGGCCGCCACUCGCUUAUUGGUUUAUAUAUUUUAUAUUCUUUA [JR_SSTryptoA_Sub015] | 330 nM
7 | AAGUGAUGUUGUAGUGAUGUUGUGAUGUUGCAGGAUAUAUAGUGAUGUAGAAGGGUAAGUACUUAUUUUUUUUUUGAGUGAUGUU [vcbczrmullin] | 76.5 nM
8 | GGUGCUGUUUGUGCCGCCUUCCUCGUUCCUCGAGGACCGGUACGGCCGCCACUCGAGUGAUGUUUGGGUAGCGAUCCCUGCUAGC [Bdazzled - #14 Exc. Tryptophan A] | 1370 nM
9 | GGUAGCAUGGCGGCCGCCACUCGCUAGUGAUGUUAGCGGGAUGAGACAAAGGACAUAACUUUAUCGAGGACCGGGCCAUGCUACC | 75.8 nM
10 | AAGGCCACGAGAAGGAGCGUGCUAUGGAGUGAUGUUCCAGUGUAGACCUAAGGUCUACACGCACAGGUAGGUCGCUCGUGGUCAA [Omei KL Arginine B SS A v1] | 203 nM
11 | AAGGGCUAGGCGGCCGCCACUGGUCGUGUACACAUACGAACCAGUGAUGUUGGUAUUGUAUGCGGCAGGACCGGGCCUAGCCGAA [Exclusion - Tryptophan B (Freestyle 26)] | 448 nM
12 | AGAUCUGUAACAGAUACCAGAGGACGAUGAUCGGAUAGUGAUGUUAUCUGUCAGUCGUCGCUCCCUUGGCAGCUGUUACAGAUCA [Omei KL Theo B SS B v1] | 174 nM
13 | CGGGUACGUCAAGGAUAUAGGCAUGACGUAGUGCAGUGAUGUUGCUCGAGUCUCUUCAACUGAGGACUAGAAGGUGAUCGUAACA [theeternabot_sameState_KL_FMN_B_15] | 631 nM
14 | AAACAUCACUGGGAGUGAUGUUCUCAGUGACGAGGACCGGUACGGCCGCCACUCGCGAGAGAUAUAGUUAAGUAAUGACUGCAUU [Excl Tryptophan A V7] | 294 nM
15 | UCCUAGGCUCGAAAGAGCCUAGGAUUAACUCAGGAUAUCCGGAAACGGAGAAGGGAGUAACUAGUGAUGUUAGGGAUUCCCUAUU | 109 nM
16 | UGGUUUAACUGAAGGAGCGGCAAUUGAUAAGUAAAUAUAGUGAUGUUAUAUAAGAUAGAGAGCCAGGUAGGUCGCAGAGGUAUUU [ExArgB.O] | 141 nM
17 | AACUCUCAGACACUUGAGUGAUGUUCAGACCGAGGACCGGUACGGCCGCCACUCGGGUCUGAGAGAGGUUAUCAAAGAUAGCCAA [Omei KL Tryp A SS A v7] | 336 nM
18 | UGACUGGAUGGAAGGAGCGCUAAACUCCUAGUGAUGUUAGGGAUAUGAGGCAAAGCCUCGAGGCAGGUAGGUCGCCAUCUAGUCU [FiskerMod 19 - Jieux - Same State - Arginine B] | 135 nM
19 | UGAUACCAGACGGCCGCCACUCCCGUAAGUCAAAGACUUACGAAGAGGGUUUUUUAGUGAUGUUGGAGGACCGGGUCUGGUAUCU [FiskerMod 18 - Jieux - Exclusion - Tryptophan B] | 618 nM
20 | UGUCAUUGGUCGGCCGCCACUAAAAUAAAAGAGUGAUGUUCUUAAAAGACGGACAAAGUCUGUCAUAGGACCGGGACCGAUGACU [TrypBS 23 #SwitchBubble #StaticStem] | 529 nM
21 | AUAUUUAUUUAGUCACUUUUAAUAUUAUGUCAGGAUAUCGUAAUUUCGAGAAGGGACUCAUGCUAGUGAUGUUAGCUAAUUCUCA [JR_Nu3_ExcFMNA_Sub023] | 135 nM

same assay, conditions: Eterna round: R107; input ligand: theophylline 20 uM

Row | Sequence | apparent KD of K4 kissing-loop reporter
22 | AUUUAUCCGUCCAGCUGAGUGAUGUUUAGCCGAGGACCGGUACGGCCGCCACUCGUAAGAACCUGUUACGUUGGCUCCUGUGGUG [theeternabot_exclusion_KL_Trp_A_49] | 201 nM
23 | UUACGAGUGAUGUUCGAAUAAAUCCAUUCAGAGGAUAUAGUAUUAACUAGAAGGCUGAAACCAACUUCGAGUGAUGUUCGAGGAU [Same State FMN A GF 3] | 88.4 nM
24 | AUAUUGGUUGAGAGUGAUGUUCCUUGUGUUCGAGGACCGGUACGGCCGCCACUCGGGUAGAAAAUAAAAGAUAUGUUUGAUUUUU [BDazzled - #12 SS Tryptophan A] | 943 nM
25 | AAGGGCUAGGCGGCCGCCACUGGUCGUGUACACAUACGAGCCAGUGAUGUUGGUAUUGUGUGCGGCAGGACCGGGCCUAGCCGAA [Exclusion - Tryptophan B (Freestyle 25)] | 468 nM
26 | UUAGCAGUAUACUGCAAGACCUAUACUGAUACCAGAGCCUAUAGGCUCCCUUGGCAGCGGAUCGAGUGAUGUUCGUAAGGUCAUU [AK4.3 SS Theophylline A] | 682 nM
27 | UAUUCUGUUCGAAAGAACGGAAUUUCGGAAGGAGCGAGAGAAAUCUCAGGUAGGUCGCCGAAAUUAUUAGGUAGUGAUGUUACCU [Arginine A K4 5] | 124 nM
28 | UGUCAUUGGUCGGCCGCCACUUCAUAGAGAGUGAUGUUCUUUAAGACGGAUCGAAAGAUCUGUCGAAGGACCGGGACCGAUGACU [FiskerMod 10 - Jieux - Same State - Tryptophan B] | 777 nM
29 | AAACUUGCAGUGAUGUUGCAAGUAGGUGAUACCAGCAUCGAAAGAUGCCCUUGGCAGCACCAAAACAUCACUUAGGUAUCACCAA [(H1)-(H2)-(T1)-(T2)-(H)'-(T)'_Design3] | 234 nM
30 | GGAUAGGACUGAGGAUAUGGUAGUGAUGUUACCAAACUGGUUAAACAUGUCAGAAAACUGGCAUGACCAGAAGGCGGUCCUAUCG [FmnBX 27 U10+G76] | 55.3 nM
31 | UAACAGGCCCUCACCGUCUUAUUUACAGACCGAGGACCGGUACGGCCGCCACUCGUGAAGUGAUGUUUCAAACAAGCGGUAGGAU | 480 nM
32 | AAGCUACGCGCGGCCGCCACUGUUUAUGUAUAAAUGCGUCGCUCACUGCUUUAGUGAUGUUGAAGCAGGACCGGGCGAAUGGUAC [theeternabot_exclusion_KL_Trp_B_15] | 76.5 nM
33 | CAUACGCAUGGAGGAUAUGAGAUUUCUCAUAUUAUUGCUUAUUCUCAGUGAUGUUGGGAUUUAAGCUCAGAAGGCCAUGUGUAUG [Ex FMN B 10] | 94.2 nM
34 | GUGUAAGUGAUGUUUGCACACACGUCGGAUACCAGAGACUUUAGCCUCCCUUGGCAGCCGCCGGCCAUAAGAGCAAGUCGAUUUA [theeternabot_sameState_KL_Theo_A_20] | 194 nM
35 | UGAUACCAGACUGAUACCAGCAGUGAUGUUGCUGAAAAUAAUAAAUGAGUCAAAGACUCGGGCCCUUGGCAGCAGUCUGGUAUCU [TheoBX 8 #SwitchBubble #StaticStem] | 117 nM
36 | UUGCCUCUGGCUGAUACCAGUGAUGCAGGGUAUGAAACAGGGAGUGAUGUUCCCUGCAGCCACCCUUGGCAGCAGUUUAAGUUUG [Exclusion Theophylline B GF 21] | 158 nM
37 | AAGCCAAAGAUUGCUGCGGGUUCCAGAGAUACCAGCCGUAUUGAAGGCCCUUGGCAGCUCGAGUGAUGUUCGAGCCGUCUCUGGC [Lexerati] | 122 nM

Row | Sequence | apparent KD of K4 kissing-loop reporter
38 | UGACUGGAUUGAAGGAGCGCUAAACUCCUAGUGAUGUUAGGGAAACAAGACAAAGUCUUGAGGCAGGUAGGUCGCAAUCUAGUCU [FiskerMod 4 - Jieux - Same State - Arginine B] | 234 nM
39 | CCUUCUCUUGAUAGUGAUGUUAUCAAGGGCAAGGAUAUCAUCUUAAUGAGAAGGUGUCCUUGAUAACAUGGAGGUCUGAAACAGA [Omei KL FMN A Exc C v5] | 321 nM
40 | UGGUCUGCACGAAGGAGCGCCCUGACAGGUUGCUGCCGUGGGCAGUGAUGUUGCUUAGUCCGGCAGGUAGGUCGCGUGCAGACCA | 189 nM
41 | UUUCCAGAUAAGUGGGAACACUCCAUAACAGAGGAUAUCAGAGCGCUGAGAAGGCUGUUUUACAGUGAUGUUGUAAGUGUGGAGU [FMN A SS t2] | 304 nM
42 | UCCUGCAAUCGACCACGAAAGUGGAUCGAUACCAGAGUCGAAAGACUCCCUUGGCAGCGAGUGAUGUUCGAAGCAGGUAAAUAAA [#SwitchBubble 22 #K4Late] | 464 nM
43 | GAGCGGUGGAGGUUACCGCUAUUCUGAGAAGGAGCGCAGAAGACUGCAGGUAGGUCGCUUAGAGCUUGCAGUGAUGUUGCAAGUU [KL-SSArg-A13] | 160 nM
44 | CGCUGGGCGAGUGAUGUUCGCUCACGUGAUACCAGUGCCAUCCAACACCCUUGGCAGCACGCGGGCAGUGAUGUUGUCCUUGUGG [Exclusion Theophylline A GF7] | 269 nM
45 | GGAUCCACCAGUGAUGUUGGAGAAAACUCUAAGGAUAUGACGAAAGUCAGAAGGUGGUAGACUGGACAAAGUCCGGUCGGAUCCA [FmnA 23 U30] | 262 nM
46 | AGCUCACACGGAAGGAGCGGAUAGAACUGACAGUUGGGCUCAAGUGAUGUUUGGGCUUGAAUCCAGGUAGGUCGCCGUGUGAGCU [Arg B SS t12] | 123 nM
47 | CCGACUGCAGGAAGGAGCGGCGGUUGGAGUGAUGUUCCAGGUAGUGAUGUUACCAAGAUCCGCCAGGUAGGUCGCCUGUUGCUCA [Same State Arginie B GF 12] | 148 nM
48 | UUUUAUUAAUUCUUCUAGUGAUGUUAGAUACGAGGACCGGUACGGCCGCCACUCGCUUAUUGGUUUAUAUAUUUUAUAUUCUUUA [JR_SSTryptoA_Sub015] | 400 nM
49 | AAGUGAUGUUGUAGUGAUGUUGUGAUGUUGCAGGAUAUAUAGUGAUGUAGAAGGGUAAGUACUUAUUUUUUUUUUGAGUGAUGUU [vcbczrmullin] | 58 nM
50 | GGUGCUGUUUGUGCCGCCUUCCUCGUUCCUCGAGGACCGGUACGGCCGCCACUCGAGUGAUGUUUGGGUAGCGAUCCCUGCUAGC [Bdazzled - #14 Exc. Tryptophan A] | 566 nM
51 | GGUAGCAUGGCGGCCGCCACUCGCUAGUGAUGUUAGCGGGAUGAGACAAAGGACAUAACUUUAUCGAGGACCGGGCCAUGCUACC | 62.2 nM
52 | AAGGCCACGAGAAGGAGCGUGCUAUGGAGUGAUGUUCCAGUGUAGACCUAAGGUCUACACGCACAGGUAGGUCGCUCGUGGUCAA [Omei KL Arginine B SS A v1] | 238 nM
